The assay deals with histone H4 (in the NCP), unmodified at K20 (human, UniProt P62805 1-103). In words: cryo-EM structure.

B1: BARD1 (ARD–BRCT), residues 415–777, as tethered to the NCP in BARD1^AB–NCPub (domain or fragment)
chain: KLLPNMAVKRNHRGETLLHIASIKGDIPSVEYLLQNGSDPNVKDHAGWTPLHEACNHGHLKVVELLLQHKALVNTTGYQNDSPLHDAAKNGHVDIVKLLLSYGASRNAVNIFGLRPVDYTDDESMKSLLLLPEKNESSSASHCSVMNTGQRRDGPLVLIGSGLSSEQQKMLSELAVILKAKKYTEFDSTVTHVVVPGDAVQSTLKCMLGILNGCWILKFEWVKACLRRKVCEQEEKYEIPEGPRRSRLNREQLLPKLFDGCYFYLWGTFKHHPKDNLIKLVTAGGGQILSRKPKPDSDVTQTINTVAYHARPDSDQRFCTQYIIYEDLCNYHPERVRQGKVWKAPSSWFIDCVMSFELLPLDS
On to B1, for which the binding result is on record as “binds”.

For the origin of these results see article PMC8680157 (Nature, 2021).
